Source: patent US20040052799A1, “Nucleic acid and amino acid sequences relating to Helicobacter pylori for diagnostics and therapeutics” (Astra Aktiebolag, priority 1996, published 2004)

Test system: N[C@@H](CC=O)C(=O)O
Assay: purified protein, by the assay type
Conditions: other: pH 8.0

H. pylori Asd (Helicobacter pylori J99)
Km: 54 µM
